# Laboratory results: paper PMC5027281 (Nature Communications, 2016)
# B1: 3I14 VLD94N variant IgG1 (antibody, V domains shown)
# VH: QVQLLESGGGVVQPGRSLRLSCAASGFTFSNYGMHWVRQAPGKGLEWVAIISFDGSKKYYANSVKGRSTISRDNSKNTLSLQMNSLGPEDTALYYCAKLPSPYYFDSRFVWVAASAFHFWGQGILVTVSS
# VL: NFMLTQPPSASGTPGQRVTISCSGSSSNIGGNTVHWFQQLPGTAPKLLIYTNSLRPSGVPDRFSGSKSGTSASLAISGLQSEDEADYYCAAWDNSLNGQVFGGGTKLTVL
# Target: Recombinant full-length HA of A/Vietnam/1203/04 (H5-VN04) (Influenza A virus A/Vietnam/1203/2004 …, UniProt Q5EP31)
# Experiment: BLI
# Conditions: both partners purified
binder,measurement,value
B1,Kd,187 pM
same,koff,7.74e-05 s⁻¹
same,kon,383000 M⁻¹ s⁻¹
